Legend:
[1] = target: T1, Macaca fascicularis TMEFF1 extracellular domain recombinant protein (plasmid BBP480, S40-V330, C-terminal … (Macaca fascicularis)); assay: BLI (Octet Red), antibody on Protein A biosensor, recombinant cyTMEFF1 ECD as analyte
T1 construct: range 40-330; also called cyTMEFF1 ECD; monkey TMEFF1 ectodomain
Protocol: (§1) The affinity of antibodies to various recombinant TMEFF1 protein was determined on an Octet Red™ instrument. After loading reagents into a 96-well plate, the Octet Red™ with Protein A-conjugated biosensors was programmed as follows: 30 seconds for baseline #1; 120 seconds to immobilize the antibody; 30 seconds for baseline #2; 300 seconds for association of antibody to recombinant TMEFF1; and 300-600 seconds for dissociation of recombinant TMEFF1 from the antibody.
Affinity of 7 antibodies was calculated using cyTMEFF1 ECD recombinant protein by Octet™.

[2] = target: T2, human TMEFF1 extracellular domain recombinant protein (plasmid BBP377, S40-V330, C-terminal 8xHis) (human, UniProt Q8IYR6 40-330); assay: BLI (Octet Red), antibody on Protein A biosensor, recombinant hTMEFF1 ECD as analyte
T2 construct: Secreted from CHO cells with a non-native signal peptide (not part of the mature protein); also called hTMEFF1 ECD; hTMEFF1-ECD
T2 sequence: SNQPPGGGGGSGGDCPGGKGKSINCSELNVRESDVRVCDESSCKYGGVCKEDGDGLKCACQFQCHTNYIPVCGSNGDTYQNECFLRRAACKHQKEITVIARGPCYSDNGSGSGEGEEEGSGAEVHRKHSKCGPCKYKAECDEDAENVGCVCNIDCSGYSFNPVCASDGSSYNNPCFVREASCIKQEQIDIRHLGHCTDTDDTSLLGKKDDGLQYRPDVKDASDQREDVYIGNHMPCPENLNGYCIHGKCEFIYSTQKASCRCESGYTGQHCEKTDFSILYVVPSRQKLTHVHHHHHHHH
Protocol: as §1
Affinity of thirteen antibodies was calculated using hTMEFF1 ECD recombinant protein by Octet™.

[3] = target: T3, endogenous human TMEFF1 on cancer cell lines (H69, HCC1187, PA-1, H526, H1048) (human, UniProt Q8IYR6 40-380); assay: cell-based or functional assay
T3 sequence: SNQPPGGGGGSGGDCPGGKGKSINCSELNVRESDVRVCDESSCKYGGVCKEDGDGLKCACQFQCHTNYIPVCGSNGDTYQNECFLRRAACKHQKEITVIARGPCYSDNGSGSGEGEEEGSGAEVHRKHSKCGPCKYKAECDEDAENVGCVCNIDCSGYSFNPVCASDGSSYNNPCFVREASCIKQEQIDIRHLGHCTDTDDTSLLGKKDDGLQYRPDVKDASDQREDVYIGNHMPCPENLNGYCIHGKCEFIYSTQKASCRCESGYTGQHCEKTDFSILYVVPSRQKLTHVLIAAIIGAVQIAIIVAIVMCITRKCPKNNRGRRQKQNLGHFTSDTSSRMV

| Binder | Kd [1] [nM] | Kd [2] [nM] | IC50 of growth of H526 cells (CellTiter Glo, 5 days) [3] [ng/mL] | IC50 of growth of H1048 cells (CellTiter Glo, 5 days) [3] [ng/mL] |
| --- | --- | --- | --- | --- |
| M1F1 (antibody, human IgG1, V domains shown) VH: QVQLQESGPGLVKPSETLSLTCAVSGYSISSGYFWGWIRQPPGKKLEWIGSIYHSGSTYYNPSLKSRVTMSVDTSKNQFSLKLSSVTAADTAVYYCAREGDCSGGICYWYFDLWGRGTLVTVSS VL: EIVMTQSPATLSVSPGERATLSCRASQSVSSNLAWYQQKPGQAPRLLIYGASTRATGIPARFSGSGSGTEVTLTISSLQSEDFAVYYCQQYNKWPLTFGGGTKVEIK | 27 | 19 |  |  |
| 36H6 (antibody, human IgG1, V domains shown) VH: QVQLVESGGGVVQPGRSLRLSCAASGFTFSDYGMHWVRQAPGKGLEWVAVIWYEGGNKYYTDSVKGRFTISRDNSKNTLYLQMNSLRAEDTAVYYCARILLWFGESYGMDVWGQGTTVTVSS VL: DIQMTQSPSSLSASVGDRVTITCRASQGISNYLAWYQQKPGKVPKLLIYAASTLQSGVPSRFSGSGSGTDFTLTISSLQPEDVATYYCQKYNNAPWTFGQGTKVEIK | 96 | 51 |  |  |
| 30C10-PBD (antibody, human IgG1, V domains shown, MA-PEG8-VA-PAB-SG3199 (PBD) on TCEP-reduced hinge region thiols, sites not stated; DAR 1.7) VH: QVQLVESGGGVVQPGRSLRLSCAASGFTFSSYGMHWVRQAPGKGLEWVAVIWYDGSDKYYADSVKGRFTISRDNSKKTLYLQMNSLRAEDTAVYFCARETIFRGLTITFFDHWGQGTLVTVSS VL: not shown |  |  | 4.27 | 0.53 |

Reference: patent US20200109194A1 (BLUEFIN BIOMEDICINE, published 2020)
